Results as given in publication PMC2693666 (PLoS ONE, 2009).

B1: recMoPrP(89–230) (domain or fragment)
chain: not shown
B2: recMoPrP(23–230) (natural protein)
chain: not shown
B3: recMoDpl(26–155) (domain or fragment, mouse, UniProt Q9QUG3 26-155, looked up)
chain: ARGIKHRFKWNRKVLPSSGGQITEARVAENRPGAFIKQGRKLDIDFGAEGNRYYAANYWQFPDGIYYEGCSEANVTKEMLVTSCVNATQAANQAEFSREKQDSKLHQRVLWRLIKEICSAKHCDFWLERG
notes: also called recDpl

Legend:
Assay in all cases: SPR; Biacore 2000, 20°C; […] (10 mM HEPES, 150 mM NaCl), pH 7.4, 20 µL/min; 1:1 (Langmuir) model
Conditions in all cases: both partners purified
recMoDpl(26–155) = target: B3
recMoPrP(23–230) = target: B2
recMoPrP(89–230) = target: B1

## B1
recMoDpl(26–155)
  stoichiometry N: 1

## B2
recMoDpl(26–155)
  stoichiometry N: 1

## B3
recMoPrP(23–230)
  Kd: 11 nM
  koff: 0.0013 s⁻¹
  kon: 120000 M⁻¹ s⁻¹
recMoPrP(89–230)
  Kd: 100 nM
  koff: 0.00087 s⁻¹
  kon: 8400 M⁻¹ s⁻¹
